Source: patent publication US20210388087A1 (Chugai, published 2021)
Numbering of substitutions follows the chain as printed. Names and notes keep the numbering of the source.

B1: dBBDu183H L100dW / dBBDu072L (antibody, name in Kabat numbering, V domains shown)
VH: QVQLVESGGGLVQPGRSLRLSCAASGFTFSNAWMHWVRQAPGKGLEWVAQIKDKGNAYAAYYAPSVKGRFTISRDDSKNSIYLQMNSLKTEDTAVYYCHYVHYASASTVWPAFGVDAWGQGTTVTVSS
VL: DIVMTQSPLSLPVTPGEPASISCQASQELVHMNRNTYLHWYQQKPGQAPRLLIYKVSNRFPGVPDRFSGSGSGTDFTLKISRVEAEDVGVYYCAQGTSVPFTFGQGTKLEIK
notes: as m1, one VH change
B2: dBBDu183H S99R / dBBDu072L (antibody, name in Kabat numbering, V domains shown)
VH: B1 VH with S105R, W110L
VL: B1 VL
notes: as m1, one VH change
B3: dBBDu183H S99Q / dBBDu072L (antibody, name in Kabat numbering, V domains shown)
VH: B1 VH with S105Q, W110L
VL: B1 VL
notes: as m1, one VH change
B4: dBBDu183H S62T / dBBDu072L (antibody, name in Kabat numbering, V domains shown)
VH: B1 VH with S65T, W110L
VL: B1 VL
notes: as m1, one VH change
B5: dBBDu183H P100eR / dBBDu072L (antibody, name in Kabat numbering, V domains shown)
VH: B1 VH with W110L, P111R
VL: B1 VL
notes: as m1, one VH change
B6: dBBDu183H T100bN / dBBDu072L (antibody, name in Kabat numbering, V domains shown)
VH: B1 VH with T108N, W110L
VL: B1 VL
notes: as m1, one VH change
B7: dBBDu183H P61Y / dBBDu072L (antibody, name in Kabat numbering, V domains shown)
VH: B1 VH with P64Y, W110L
VL: B1 VL
notes: as m1, one VH change
B8: dBBDu183H S62R / dBBDu072L (antibody, name in Kabat numbering, V domains shown)
VH: B1 VH with S65R, W110L
VL: B1 VL
notes: as m1, one VH change
B9: dBBDu183H P100eH / dBBDu072L (antibody, name in Kabat numbering, V domains shown)
VH: B1 VH with W110L, P111H
VL: B1 VL
notes: as m1, one VH change
B10: dBBDu183H P61S / dBBDu072L (antibody, name in Kabat numbering, V domains shown)
VH: B1 VH with P64S, W110L
VL: B1 VL
notes: as m1, one VH change
B11: dBBDu183H P61D / dBBDu072L (antibody, name in Kabat numbering, V domains shown)
VH: B1 VH with P64D, W110L
VL: B1 VL
notes: as m1, one VH change
B12: dBBDu183H T100bQ / dBBDu072L (antibody, name in Kabat numbering, V domains shown)
VH: B1 VH with T108Q, W110L
VL: B1 VL
notes: as m1, one VH change
B13: dBBDu183H S99K / dBBDu072L (antibody, name in Kabat numbering, V domains shown)
VH: B1 VH with S105K, W110L
VL: B1 VL
notes: as m1, one VH change
B14: dBBDu183H S62H / dBBDu072L (antibody, name in Kabat numbering, V domains shown)
VH: B1 VH with S65H, W110L
VL: B1 VL
notes: as m1, one VH change
B15: dBBDu183H P100eD / dBBDu072L (antibody, name in Kabat numbering, V domains shown)
VH: B1 VH with W110L, P111D
VL: B1 VL
notes: as m1, one VH change
B16: dBBDu183H S62Y / dBBDu072L (antibody, name in Kabat numbering, V domains shown)
VH: B1 VH with S65Y, W110L
VL: B1 VL
notes: as m1, one VH change
B17: dBBDu183H S62E / dBBDu072L (antibody, name in Kabat numbering, V domains shown)
VH: B1 VH with S65E, W110L
VL: B1 VL
notes: as m1, one VH change
B18: dBBDu183H P61F / dBBDu072L (antibody, name in Kabat numbering, V domains shown)
VH: B1 VH with P64F, W110L
VL: B1 VL
notes: as m1, one VH change
B19: dBBDu183H S62Q / dBBDu072L (antibody, name in Kabat numbering, V domains shown)
VH: B1 VH with S65Q, W110L
VL: B1 VL
notes: as m1, one VH change
B20: dBBDu183H S62W / dBBDu072L (antibody, name in Kabat numbering, V domains shown)
VH: B1 VH with S65W, W110L
VL: B1 VL
notes: as m1, one VH change
B21: dBBDu183H P100eT / dBBDu072L (antibody, name in Kabat numbering, V domains shown)
VH: B1 VH with W110L, P111T
VL: B1 VL
notes: as m1, one VH change
B22: dBBDu183H P61N / dBBDu072L (antibody, name in Kabat numbering, V domains shown)
VH: B1 VH with P64N, W110L
VL: B1 VL
notes: as m1, one VH change
B23: dBBDu183H S62F / dBBDu072L (antibody, name in Kabat numbering, V domains shown)
VH: B1 VH with S65F, W110L
VL: B1 VL
notes: as m1, one VH change
B24: dBBDu183H P61T / dBBDu072L (antibody, name in Kabat numbering, V domains shown)
VH: B1 VH with P64T, W110L
VL: B1 VL
notes: as m1, one VH change
B25: dBBDu183H P61K / dBBDu072L (antibody, name in Kabat numbering, V domains shown)
VH: B1 VH with P64K, W110L
VL: B1 VL
notes: as m1, one VH change
B26: dBBDu183H P61W / dBBDu072L (antibody, name in Kabat numbering, V domains shown)
VH: B1 VH with P64W, W110L
VL: B1 VL
notes: as m1, one VH change
B27: dBBDu183H S99T / dBBDu072L (antibody, name in Kabat numbering, V domains shown)
VH: B1 VH with S105T, W110L
VL: B1 VL
notes: as m1, one VH change
B28: dBBDu183H P100eN / dBBDu072L (antibody, name in Kabat numbering, V domains shown)
VH: B1 VH with W110L, P111N
VL: B1 VL
notes: as m1, one VH change
B29: dBBDu183H P61G / dBBDu072L (antibody, name in Kabat numbering, V domains shown)
VH: B1 VH with P64G, W110L
VL: B1 VL
notes: as m1, one VH change
B30: dBBDu183H P61E / dBBDu072L (antibody, name in Kabat numbering, V domains shown)
VH: B1 VH with P64E, W110L
VL: B1 VL
notes: as m1, one VH change
B31: dBBDu183H S99G / dBBDu072L (antibody, name in Kabat numbering, V domains shown)
VH: B1 VH with S105G, W110L
VL: B1 VL
notes: as m1, one VH change
B32: dBBDu183H P100eE / dBBDu072L (antibody, name in Kabat numbering, V domains shown)
VH: B1 VH with W110L, P111E
VL: B1 VL
notes: as m1, one VH change
B33: dBBDu183H P100eK / dBBDu072L (antibody, name in Kabat numbering, V domains shown)
VH: B1 VH with W110L, P111K
VL: B1 VL
notes: as m1, one VH change
B34: dBBDu183H P100eS / dBBDu072L (antibody, name in Kabat numbering, V domains shown)
VH: B1 VH with W110L, P111S
VL: B1 VL
notes: as m1, one VH change
B35: dBBDu183H P100eG / dBBDu072L (antibody, name in Kabat numbering, V domains shown)
VH: B1 VH with W110L, P111G
VL: B1 VL
notes: as m1, one VH change
B36: dBBDu183H P100eQ / dBBDu072L (antibody, name in Kabat numbering, V domains shown)
VH: B1 VH with W110L, P111Q
VL: B1 VL
notes: as m1, one VH change
B37: dBBDu183H S99Y / dBBDu072L (antibody, name in Kabat numbering, V domains shown)
VH: B1 VH with S105Y, W110L
VL: B1 VL
notes: as m1, one VH change
B38: dBBDu183H S62N / dBBDu072L (antibody, name in Kabat numbering, V domains shown)
VH: B1 VH with S65N, W110L
VL: B1 VL
notes: as m1, one VH change
B39: dBBDu183H S62K / dBBDu072L (antibody, name in Kabat numbering, V domains shown)
VH: B1 VH with S65K, W110L
VL: B1 VL
notes: as m1, one VH change
B40: dBBDu183H P61R / dBBDu072L (antibody, name in Kabat numbering, V domains shown)
VH: B1 VH with P64R, W110L
VL: B1 VL
notes: as m1, one VH change
B41: dBBDu183H S62D / dBBDu072L (antibody, name in Kabat numbering, V domains shown)
VH: B1 VH with S65D, W110L
VL: B1 VL
notes: as m1, one VH change
B42: dBBDu183H S62G / dBBDu072L (antibody, name in Kabat numbering, V domains shown)
VH: B1 VH with S65G, W110L
VL: B1 VL
notes: as m1, one VH change
B43: dBBDu183H P61Q / dBBDu072L (antibody, name in Kabat numbering, V domains shown)
VH: B1 VH with P64Q, W110L
VL: B1 VL
notes: as m1, one VH change
B44: dBBDu183H T100bS / dBBDu072L (antibody, name in Kabat numbering, V domains shown)
VH: B1 VH with T108S, W110L
VL: B1 VL
notes: as m1, one VH change
B45: dBBDu183H S99H / dBBDu072L (antibody, name in Kabat numbering, V domains shown)
VH: B1 VH with S105H, W110L
VL: B1 VL
notes: as m1, one VH change
B46: dBBDu183H S62V / dBBDu072L (antibody, name in Kabat numbering, V domains shown)
VH: B1 VH with S65V, W110L
VL: B1 VL
notes: as m1, one VH change
B47: dBBDu183H P61H / dBBDu072L (antibody, name in Kabat numbering, V domains shown)
VH: B1 VH with P64H, W110L
VL: B1 VL
notes: as m1, one VH change

biological target: T1, Human CD137 ECD (human); assay: SPR, vs parent H183/L072
T1 construct: also called 4-1BB
T1 sequence (chain, as listed by the source limits assumed): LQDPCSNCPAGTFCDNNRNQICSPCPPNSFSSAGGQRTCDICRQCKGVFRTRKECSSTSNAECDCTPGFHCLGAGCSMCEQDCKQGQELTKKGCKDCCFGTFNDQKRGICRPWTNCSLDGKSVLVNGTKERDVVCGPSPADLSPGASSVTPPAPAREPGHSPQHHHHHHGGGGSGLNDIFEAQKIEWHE

fold change of affinity | Binder
0.2 fold | B1
1.1 fold | B2
0.6 fold | B3
1 fold | B4
0.3 fold | B5
0.1 fold | B6
0.7 fold | B7
1.1 fold | B8
0.1 fold | B9
1.1 fold | B10
0.7 fold | B11
0.3 fold | B12
1.2 fold | B13
0.9 fold | B14
0.3 fold | B15
0.7 fold | B16
0.8 fold | B17
0.7 fold | B18
1 fold | B19
0.8 fold | B20
0.2 fold | B21
1.2 fold | B22
0.5 fold | B23
1.4 fold | B24

fold change of affinity | Binder
0.8 fold | B25
0.8 fold | B26
0.6 fold | B27
0.2 fold | B28
1 fold | B29
0.7 fold | B30
1 fold | B31
0.8 fold | B32
0.3 fold | B33
0.4 fold | B34
0.4 fold | B35
0.4 fold | B36
0.5 fold | B37
0.9 fold | B38
0.9 fold | B39
1 fold | B40
0.9 fold | B41
1 fold | B42
0.6 fold | B43
1 fold | B44
1.5 fold | B45
0.9 fold | B46
0.9 fold | B47
